Assay results from paper PMC7764039.

Molecular target: Gαi (endogenous in HEK-293 cells) (human (endogenous in HEK-293)) (UniProt P63096)
UniProt P63096, sequence (P63096 whole entry): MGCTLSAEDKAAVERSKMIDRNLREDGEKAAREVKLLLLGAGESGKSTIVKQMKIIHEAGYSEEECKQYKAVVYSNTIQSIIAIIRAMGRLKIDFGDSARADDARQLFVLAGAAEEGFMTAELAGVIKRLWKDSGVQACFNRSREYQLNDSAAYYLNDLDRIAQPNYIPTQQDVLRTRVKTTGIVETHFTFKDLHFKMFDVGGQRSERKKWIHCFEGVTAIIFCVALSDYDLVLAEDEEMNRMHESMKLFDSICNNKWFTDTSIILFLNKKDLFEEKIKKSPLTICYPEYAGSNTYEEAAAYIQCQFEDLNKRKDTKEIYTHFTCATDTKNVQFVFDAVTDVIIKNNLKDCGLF

reduction in cAMP signaling in transiently transfected HEK-293 cells, 1 µM CPA with 10 μM forskolin, normalized to forskolin treated cells [%]	Molecule
72	A1/A2AR chimera, untagged (plasmid ARJ195: pCEP4 A1/A2AR) (from UniProt P30542 1-290; P29274 291-412) (receptor)
67	A1/A2AΔ316R truncated chimera, untagged (plasmid ARJ196: pCEP4 A1/A2AΔ316R) (from UniProt P30542 1-290; P29274 291-316) (receptor)
62	A1R, untagged (plasmid ARJ194: pCEP4 A1R) (receptor) MPPSISAFQAAYIGIEVLIALVSVPGNVLVIWAVKVNQALRDATFCFIVSLAVADVAVGALVIPLAILINIGPQTYFHTCLMVACPVLILTQSSILALLAIAVDRYLRVKIPLRYKMVVTPRRAAVAIAGCWILSFVVGLTPMFGWNNLSAVERAWAANGSMGEPVIKCEFEKVISMEYMVYFNFFVWVLPPLLLMVLIYLEVFYLIRKQLNKKVSASSGDPQKYYGKELKIAKSLALILFLFALSWLPLHILNCITLFCPSCHKPSILTYIAIFLTHGNSAMNPIVYAFRIQKFRVTFLKIWNDHFRCQPAPPIDEDLPEERPDD
